From the Human Domainome abundance scans (Beltran et al. 2025)
± gives the uncertainty stated by the source.

B1: CD2-associated protein, residues 109 to 169; numbered along this chain, Q9Y5K6 (parent)
chain: KKRQCKVLFEYIPQNEDELELKVGDIIDINEEVEEGWWSGTLNNKLGLFPSNFVKELEVTD

Variants of: B1
Experiment: abundance fitness (aPCA) (normalised: wild type 0, dead -1); higher = more abundant; growth selection in yeast, the domain comes from the species named
Settings: Homo sapiens

Variant	abundance fitness
L48P	-0.403 ± 0.12
L48I	-0.022 ± 0.13
L48Q	-0.298 ± 0.092
L48Y	-0.033 ± 0.082
L48D	-0.821 ± 0.21
P50Q	-0.279 ± 0.17
P50A	-0.941 ± 0.31
P50M	-0.57 ± 0.21
P50W	-0.764 ± 0.14
P50S	-0.465 ± 0.13
P50G	-0.697 ± 0.17
L19H	-0.73 ± 0.36
L19G	-0.508 ± 0.21
L19I	-0.063 ± 0.33
K55E	0.127 ± 0.075
K55A	-0.01 ± 0.087
K55V	-0.146 ± 0.078
K55H	-0.035 ± 0.22
K55T	-0.163 ± 0.11
E31T	-0.087 ± 0.12
E31F	-0.584 ± 0.49
E31I	-0.116 ± 0.44
E31L	-0.367 ± 0.12
N30D	-0.123 ± 0.29

Variant	abundance fitness
N30A	-0.305 ± 0.47
N30M	-0.151 ± 0.18
F49R	-1.3 ± 0.26
F49E	-0.872 ± 0.45
F49L	-0.77 ± 0.15
C5Q	-0.024 ± 0.1
C5L	-0.445 ± 0.072
C5R	-0.547 ± 0.11
C5E	-0.688 ± 0.32
C5M	-0.419 ± 0.13
C5F	-0.367 ± 0.073
C5W	-0.743 ± 0.24
E56T	-0.033 ± 0.097
E56V	-0.105 ± 0.08
E56F	-0.406 ± 0.21
E56L	-0.058 ± 0.068
E56Q	-0.291 ± 0.18
E56K	0.16 ± 0.14
E56Y	-0.717 ± 0.28
W38C	-0.385 ± 0.18
W38H	-0.679 ± 0.29
W38T	-0.618 ± 0.15
W38F	-0.263 ± 0.12
W38D	-0.587 ± 0.33

Variant	abundance fitness
W38K	-0.669 ± 0.2
W38S	-0.49 ± 0.092
W38P	-0.787 ± 0.31
W38I	-0.057 ± 0.15
L57Q	-0.485 ± 0.27
L57E	-0.133 ± 0.14
L57I	0.241 ± 0.18
L57C	-0.041 ± 0.33
L57N	-0.69 ± 0.3
I29W	-0.693 ± 0.2
I29Y	-0.886 ± 0.31
I29E	-0.78 ± 0.36
I29R	-0.678 ± 0.22
I29K	-0.63 ± 0.26
I29L	-0.219 ± 0.077
I29P	-0.625 ± 0.21
I29T	-0.543 ± 0.19
I29C	-0.57 ± 0.28
I29H	-0.482 ± 0.28
F9A	0.026 ± 0.11
F9D	-0.097 ± 0.17
F9M	0.244 ± 0.1
F9T	0.222 ± 0.12
F9W	-0.108 ± 0.15

Variant	abundance fitness
F9L	0.283 ± 0.086
F9S	0.004 ± 0.087
F9P	-0.449 ± 0.14
F9G	-0.294 ± 0.11
Q14W	-0.788 ± 0.32
Q14G	-0.337 ± 0.18
Q14L	-0.407 ± 0.23
Q14A	-0.203 ± 0.39
Q14S	-0.325 ± 0.25
L8Y	-0.288 ± 0.18
L8V	-0.035 ± 0.11
L8P	-0.596 ± 0.29
L8N	-0.417 ± 0.32
L8Q	-0.437 ± 0.23
L8H	-0.401 ± 0.33
L8G	-0.133 ± 0.18
L8D	-0.267 ± 0.25
L8A	-0.34 ± 0.2
L8T	-0.192 ± 0.14
E18Y	-0.582 ± 0.22
E18D	-0.738 ± 0.49
E18T	-0.838 ± 0.29
E18K	-0.411 ± 0.41
E18G	-0.439 ± 0.21

Variant	abundance fitness
E18A	-0.783 ± 0.27
P13M	-0.812 ± 0.38
P13K	-0.233 ± 0.25
V23S	-0.414 ± 0.21
V23T	-0.144 ± 0.18
V23K	0.117 ± 0.19
V23L	-0.369 ± 0.2
V23A	-0.595 ± 0.44
V23R	-0.092 ± 0.14
G47Q	-0.696 ± 0.17
G47N	-0.723 ± 0.41
G47L	-0.922 ± 0.16
G47S	-1.05 ± 0.26
G47W	-0.759 ± 0.18
G47K	-0.773 ± 0.23
G47M	-1.21 ± 0.4
G47Y	-0.434 ± 0.19
G47T	-0.644 ± 0.16
D61N	-0.273 ± 0.28
D61Y	-0.376 ± 0.21
D61E	0.283 ± 0.26
D61M	-0.106 ± 0.24
K6S	-0.084 ± 0.046
K6N	-0.472 ± 0.09

Variant	abundance fitness
K6E	-0.06 ± 0.11
K6H	-0.02 ± 0.077
K6A	0.112 ± 0.053
K6Q	0.191 ± 0.065
E10S	0.081 ± 0.076
E10D	0.144 ± 0.14
E10R	-0.126 ± 0.066
E10K	-0.215 ± 0.12
E10G	-0.153 ± 0.091
R3C	-0.38 ± 0.069
R3T	-0.109 ± 0.093
R3V	-0.316 ± 0.076
R3A	-0.664 ± 0.14
R3E	-0.401 ± 0.41
R3G	-0.21 ± 0.065
D25E	-0.066 ± 0.19
D25L	-0.856 ± 0.32
D25G	-0.835 ± 0.24
D25C	-0.649 ± 0.27
D25M	-0.771 ± 0.49
N43G	-0.09 ± 0.13
N43F	-0.137 ± 0.27
N43V	-0.679 ± 0.21
N43Q	-0.275 ± 0.15

Variant	abundance fitness
E35P	-0.139 ± 0.22
E35D	-0.146 ± 0.33
E35S	0.213 ± 0.13
E35R	-0.15 ± 0.12
E35N	-0.12 ± 0.26
E35H	-0.318 ± 0.35
E35V	-0.15 ± 0.098
E35T	-0.185 ± 0.15
V59I	-0.087 ± 0.13
V59R	-0.131 ± 0.078
V59T	0.01 ± 0.1
V59P	-0.138 ± 0.14
V59L	0.013 ± 0.072
V59S	0.163 ± 0.088
K2G	-0.007 ± 0.36
K2R	-0.334 ± 0.23
I12Q	-0.267 ± 0.27
I12P	-0.159 ± 0.37
I12T	0.106 ± 0.14
I12K	-0.063 ± 0.19
I12R	-0.253 ± 0.11
I12Y	0.065 ± 0.23
G40C	-0.664 ± 0.14
